Test results reported in the nanobody polyreactivity screen of Harvey et al. (2022).

Test: yeast display, Sf9 membrane polyspecificity reagent, FACS + sequencing; frameworks hold sequencing errors
How it was run: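 Polyreactivity labels are assigned by the sorting gate from which each nanobody was recovered. The gates were low and high (top ~1%), set on anti-HA fluorescence for expression and streptavidin fluorescence for reagent binding. Before sorting, galactose-induced (36–48 hours) yeast display cells were stained for 1 hour at 4 °C with 10% biotinylated, detergent-solubilized Sf9 membrane reagent.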
In the case of “QVHLVESGGGLVQAGVSLRLSCAASGRIFEENAMGWYRQAPGKERELVAAITYSGGSTYYADSVKGRFTISRDNAKNTVYLQMNSLKPEDTAVYYCAATVDLVYIDYDYWGQGTQVTVSS”, the “polyreactivity (PSR sort gate)” value is reported as “low polyreactivity”. For “QVHLVESGGGLVQARGSLRLSCAASGSIFRNYAMGWYRQAPGKERELLATISGRGGRTYYADSVKGRFTISRDNAKNTVYLQMNSLKPEDTAVYYCAARGTLGKYSTATVYWGKGTQVTVSS”, the “polyreactivity (PSR sort gate)” value was “high polyreactivity”. With “QVHLVESGGGLVQEGGSLRISCAASGGTFHSNDMGWYRQAPGKESELVASINWSGGSTYYSDSVKGRFTISRDNAKNTVYLQMNRLKPEDNAVYYCAARESYPGYGYDHWGQGTQVTVSS” the “polyreactivity (PSR sort gate)” value was “low polyreactivity”. With “QVHLVESGGGLVQEGGSLRLSCAASGSIFQYYAMGWYIQAPGKERELVAAISWRSGRTYYADSVKGRFTISRDNAKNTVYLQMNSLKPEDTAVYYCIRGYARDYDYWGQGTQVTVSS” the “polyreactivity (PSR sort gate)” value was “high polyreactivity”. With “QVHLVESGGGLVQSGGSLRLRCAASGSTFYGYTKAWYRQAPGKERELVAAINWSGTRTYYADSVNGRFTISRDTAKNTVYLQMNSLKPEDTAVYYCAAERYYWGLGTQVTVSS” the “polyreactivity (PSR sort gate)” value was “high polyreactivity”. With “QVHLVESGGGLVQSRGSLRLSCAASGNIFGNNAMGWYRLAPGKERELVAAISSSGTSTYYADSVKGRFTISRDNAKNTVYLQMNSLKPEDTEVYYCNADPLPYDGYYDYDYWGQGTQVTVSS” the “polyreactivity (PSR sort gate)” value was “low polyreactivity”. With “QVHLVESGGRLVQAGVSLRLSCAASGRIFSNYAMGWYIQAPGKERELVAAISRGGGRTFYADSVKGRFTISRDNAKNTVYLQMNSLKPEDTAVYYCATRSYYVKGDYWGQGTQVTVSS” the “polyreactivity (PSR sort gate)” value was “high polyreactivity”. With “QVHLVESGGVLVQAGGRLRLSCAAYGNIIGFNAMGWYRQAPGTERELVAAINSGGSTYYPDSVKGRFTISRDNAKNSVYLQMNSLKPEDSAVYYCAARVRIRGGGYDDWGQGTQVTVSS” the “polyreactivity (PSR sort gate)” value was “high polyreactivity”. In the case of “QVHLVESGGVLVQAGGSLLLSCGACGSIFAQYTMGWYRNAPGKDRELVAAISSSGGSTYYADSVKGRFTISRDNANNTFYLQMNSLKAEDTAVYYCAARGAHYLRSGDHWGQGTQVNVSS”, the “polyreactivity (PSR sort gate)” value is reported as “low polyreactivity”. With “QVHLVESGGVLVQAGGSLRLSCAASGSIYESYVMGWYRQAPRKERELVASISSGGSTYYADSVKGRFTISRDNAKNTVYFQNNSLKQEDTAGYYCAANYDGGYLDYEAGYRLEYDFWGQGTQVTVSS” the “polyreactivity (PSR sort gate)” value was “low polyreactivity”. For “QVHLVESGRGLVQAGGSLSVTCSASGFTFYWYTMGWYRRAPGKERELVAAISRRGGSTSYADSVKGRFTISRDNAKNTVYLKMKILKPDDTAVYYCAKTPGWTDYDYWGQGTQVTVSS”, the “polyreactivity (PSR sort gate)” value was “high polyreactivity”. In the case of “QVHLVESGVGLDQAGGSLRLSCASTGYIFETYAMGWYRPATGKERELVAAISRGASTYYADSVKGRFTISRDNAQNTVSLQLNSLKQEDTAVYYCAPTRRSWHRYGYWGQGTQVTVSS”, the “polyreactivity (PSR sort gate)” value is reported as “low polyreactivity”. In the case of “QVHLVESGVGLVQAGCSLRLSCAASGIIFLTNAMGWYRQAPGKERELVAAITAIGGSTYYADSVKGRFTISRDNAKNTVYLQINSLKPEDTAVYYCAADFSYVYYLYDYWGQGTQVTVSS”, the “polyreactivity (PSR sort gate)” value is reported as “low polyreactivity”. For “QVHLVESGVGLVQAGGSLRLSCAASGYIFPYYTMGWYRQAPGKERELVAAITIGGSTYYADSVKGRFTISRDNAKNTVYLQMNSLKPEDTAVYYCAARSRYYDTRFDYWGQGTQVTVSS”, the “polyreactivity (PSR sort gate)” value was “low polyreactivity”. In the case of “QVHLVESRGGLVQAGGSLRLSCAASGYTFGHYALGWYRHAPGKERELVAVITSGGSTNYADSEKGRFTISRDNAKNNVYLQMKSLKPEETAVYYCAADLYFYYVWLRDYWGQGTQVTVSS”, the “polyreactivity (PSR sort gate)” value is reported as “low polyreactivity”. For “QVHLVESRGGLVQAGGSLRLSCAASVFTFRYYAMGWYRQAPGKERELVAAITSDGITNYADSVKGRFTISRDNAKNTVYLQMNSLKPEDTAVYYCAAVGWFYGIRLEYWGQGTQLTVSS”, the “polyreactivity (PSR sort gate)” value was “high polyreactivity”. In the case of “QVHLVESVGGLFQAGGSLRLSCDASGRTFPINAMGWYRQAPGKERELVARISRTSGSTYYADSVKGRFTISRDNAKNTVYLQMNSLNPEDTAVYYCAAVRDKYFRARYGYWGQGTQVTVSS”, the “polyreactivity (PSR sort gate)” value is reported as “high polyreactivity”. With “QVHLVESVGGLVQAGGSLRLSCAASGRIIYTYAMGWYIQAPGKERELVAAISWSGGSTYYADSVKGRFTISRDNAKNTVYLQMNSLKPEDTAVYYCNAAYYGYENLSKRGYWGQGTQVTVSS” the “polyreactivity (PSR sort gate)” value was “high polyreactivity”. In the case of “QVHLVESVGGLVQAGGSLRLSCAASGRTFHYYAMGWYRQAPGKERELVAGITGGGSTYYADSVKGRFTISRDNAKNTVYLQMNSLKPEDTAVYYCAADRSYYGYGYWGQGTQVTVSS”, the “polyreactivity (PSR sort gate)” value is reported as “low polyreactivity”. In the case of “QVHLVESVGGLVQAGGSLRLSCAASGSIFLRYGMGWYRQAPGKERELVASISSSGGSTYYADSVKGRFTISRDNAKNTVYLQMNSLKPEDTAVYYCAADVPGARVSYWTSSGWHYDYCGQGTQVTVSS”, the “polyreactivity (PSR sort gate)” value is reported as “high polyreactivity”. For “QVHLVESVGGLVQAGGSLRLSCAASGSTFIYYAMVRYRQAPGKERELVASISRSGGSTYYADSVKGRFTISRDNAKNTVYLQMNSLKPEDTAFYYCARAYRSSFNYWGQGTQVTVSS”, the “polyreactivity (PSR sort gate)” value was “high polyreactivity”. In the case of “QVHLVESVGGLVQAGGSLRLSCASSGFTFPYYAMGWYRQQPGKERELVAAISWIGDSTYYADSVKGRFTISRDNAKNTVYLQMNSLKPEDTAVYYCAAGYKWSIPNRDYDYWGQGTQVTVSS”, the “polyreactivity (PSR sort gate)” value is reported as “low polyreactivity”. In the case of “QVHLVETGGGLVQAGGSLRLSCAASGFIFIWYALGGYRQAPGKERELVAAITSDGGRTYYADSVKGRFTISRDNAKNSVYFQMNSLKPEDTAVYYCYAVSSATKYEYWGQGTQVTVSS”, the “polyreactivity (PSR sort gate)” value is reported as “high polyreactivity”. With “QVHLVETGGGLVQAGGSLRLSCAASGYIFGWYAMGWYRQAPGKERELVAAITRGGSTNYADSVKGRFTISRDNAKNTVYLLMNSLKPEDTAVYYCNTEDWAVGSPEVEYEYDYWGQGTQVTVSS” the “polyreactivity (PSR sort gate)” value was “low polyreactivity”. For “QVHLVETVGGLVKAGGSLRLSFAASGSIFTSNDMGWYRQEPGKERELVAAISSGGRTYYADSVKGRFTISRDNAKNTVYLQMNSLKPEYTAVYYCAVDPHLYALRGAVYYWGQGTQVTVSS”, the “polyreactivity (PSR sort gate)” value was “low polyreactivity”. With “QVHLVQSGGGLVQAGGSLRISSAASGSTFSPYDMGRYRQAPGKEREMVAGITDGAITTYADSVKGSFTISRDNANNTVYLQMNSLKPEDTEVYYCAAFLWAKYHPGYYYWGQGTQETVSS” the “polyreactivity (PSR sort gate)” value was “low polyreactivity”. With “QVHLVQTRGGLVQAGGSLRLSCAASGLTFTYYAMGWNRPEPGKERQLVSAISSSGSDTYYADSVKGRFTISRDYALNTVYFQMNSLKTEDTAVYYCAAVLTALSPDFEYEYWGQGTQVTVSS” the “polyreactivity (PSR sort gate)” value was “low polyreactivity”. With “QVHRVESGGGLVQAGGCLRLSCAASGRTFARYVMGGYRQAPGKERELVAAINSGGTTYYADSVKGRFTISRDNAKNTVYLQMNSLKPEDTAVYYCNGRRGHYAYDYWGQGTQVTVSS” the “polyreactivity (PSR sort gate)” value was “high polyreactivity”. For “QVKHVESGGGLVQAGGSLRLSCAASGFTFSYYAMGWFRQAPGKERELVAAITSGGSTYYADYVKGRFTISRDNAKNTVYLQMNSLKPEDTAVYYCNADGWYYPTDDYWGHGTQVTVSS”, the “polyreactivity (PSR sort gate)” value was “low polyreactivity”. With “QVKLKESVGGLVQAGGSLRLSCAASGSISATGNMGWYRQAPGEERELVAAINFGSNTYYADSVKGRFTISRDNAKNTVYLQKSGLKPEDTPVYYCAVDGCYVGPYYYWGQGTQVTVSS” the “polyreactivity (PSR sort gate)” value was “high polyreactivity”. For “QVKLLDSGGGLVQAGGSLRLSCSASGFTFNNYAMVWYRQAPGKERELVAAISWAGGSTYYADSVKGRFTISRDNAKNTVYLQMNTLKPEDTAVYYCAKRIRYTTRPTYGFYYWGQGTQVTVSS”, the “polyreactivity (PSR sort gate)” value was “high polyreactivity”. For “QVKLVDSAGGLVQAGVILRLRCAASGSIVRPNAMGWYSQATGKERELVAAITSSGTTNYADSVKVRFTISRDNAKNTVYLQMNSLKPEDTAVYYCAAERKDGGYGYGVWDYYPGENMDYWGQGTQVTVSS”, the “polyreactivity (PSR sort gate)” value was “low polyreactivity”. For “QVKLVDSGGGLVQAGGSVGLSCAASGRIFPWYTMGWYRQAPGKERELVAVISSGGRTHYADSVKGRFTISRDNAKNTVYLQMYSLNPEDTAVYDCAAESRYQRYDYWGQGTQVTVSS”, the “polyreactivity (PSR sort gate)” value was “high polyreactivity”. For “QVKLVESAGGLVQAGCSLRLSCAASGSIFLKNAKGWYRQSPGKERELVAGITTRGSTYYADSVKGRFTISRDNAKNTVYLQMNSLKPEDTAVYYCAKRDVGYQTRYFYWGQGTQVTVSS”, the “polyreactivity (PSR sort gate)” value was “high polyreactivity”. In the case of “QVKLVESGGGLDQAGGSLRLSCAAYGSIFGDYVMGWYRQAPGKEMEFVAAISGSGGSTYYADSVKWRFTISRVNAKNTVYLQMNCLKPEDTAVYYCSTSGPQYYSRNLDYWGQGTQVTVSS”, the “polyreactivity (PSR sort gate)” value is reported as “low polyreactivity”. In the case of “QVKLVESGGGLFQAGGSLRLSCADSGRTFYYYGMPWYIQETGKERELVAAINRGDSTKYADSVKGRFTISLDNAKNNVYLHMNSLKPEDTAVYYCNARLRCSFARFIYEYWRQGTQVTVSS”, the “polyreactivity (PSR sort gate)” value is reported as “low polyreactivity”. With “QVKLVESGGGLVHAGGSLRLICAASGFTFGEYAMVWSRQSPGKERELVAGISWSGGGTYYADSVKGRFTISRDNAKYTVYLQMNSLKPEDTAVYYCAAVLPSTSYKYDYWGQGTQVTVSS” the “polyreactivity (PSR sort gate)” value was “low polyreactivity”. With “QVKLVESGGGLVQAGCRLRLSCAASGFICGYNAMGWYRQAPGKERELVAAIDWSGTSTYYADSVKWRFTISRDNAKNTVYLQMNSLKPEDSAVYYCAADTSTWDHTRGYDYWGQGTQVTVSS” the “polyreactivity (PSR sort gate)” value was “high polyreactivity”. With “QVKLVESGGGLVQAGGRLRLTCAASGSTISGYAMGWYRQAPGKERQLVATITGGGRTYYADSVKGRFTISRDNAKNTVYLQMNSLKPEDSAVYYFAVRGYHQYKYGYWGQGTQVTVSS” the “polyreactivity (PSR sort gate)” value was “high polyreactivity”. With “QVKLVESGGGLVQAGGSIRLSCAASGSIFWYYAMGWYRQAPGKERELVATITSGGSTSYADSVKGRFTISRDNAKNTVYLQMKSLKPEDTAVYYCAAARLFTTYDWGQGTQVTVSS” the “polyreactivity (PSR sort gate)” value was “low polyreactivity”. In the case of “QVKLVESGGGLVQAGGSLRISCAASGLTFPKYAMGWYRQAPGKERELVAAITQRGGSTYYADSVKVRFTISRDNAKNTVYLEMYWLKREDTAVYYCNARRRDYNNRREFDYWGQGSQVTVSS”, the “polyreactivity (PSR sort gate)” value is reported as “high polyreactivity”. With “QVKLVESGGGLVQAGGSLRLICAASGRIFVPYAMGWNRQAPWKETELFAAISRSGGSTYYADSVKGRFTISRDNAKNTVYLQMNSLKTEETAVYYCAVYYRRYKEYGYNYWGQGTEVTVSS” the “polyreactivity (PSR sort gate)” value was “high polyreactivity”. In the case of “QVKLVESGGGLVQAGGSLRLSCAASARIFAQYDMGWYRQEPGKEREFVAAISGGGSSKYYADSVKGRFTISRDNAKNTGYLQMNSLKPEDTAVYYCAAYGRYPSWYAPGNEYWGQGTQVTVSS”, the “polyreactivity (PSR sort gate)” value is reported as “low polyreactivity”.
